Assay results from paper PMC6265327, “Structure of DNA-CMG-Pol epsilon elucidates the roles of the non-catalytic polymerase modules in the eukaryotic replisome” (Nature Communications, 2018).

T1: Mcm5, subunit of the purified CMG (yeast (strains based on W303), UniProt P29496 1-775)
T1 construct: Mcm5, subunit of yeast CMG; The Mcm5 chain of m4; source: yeast overexpression strain yJCZ3, purified as part of CMG
T1 sequence: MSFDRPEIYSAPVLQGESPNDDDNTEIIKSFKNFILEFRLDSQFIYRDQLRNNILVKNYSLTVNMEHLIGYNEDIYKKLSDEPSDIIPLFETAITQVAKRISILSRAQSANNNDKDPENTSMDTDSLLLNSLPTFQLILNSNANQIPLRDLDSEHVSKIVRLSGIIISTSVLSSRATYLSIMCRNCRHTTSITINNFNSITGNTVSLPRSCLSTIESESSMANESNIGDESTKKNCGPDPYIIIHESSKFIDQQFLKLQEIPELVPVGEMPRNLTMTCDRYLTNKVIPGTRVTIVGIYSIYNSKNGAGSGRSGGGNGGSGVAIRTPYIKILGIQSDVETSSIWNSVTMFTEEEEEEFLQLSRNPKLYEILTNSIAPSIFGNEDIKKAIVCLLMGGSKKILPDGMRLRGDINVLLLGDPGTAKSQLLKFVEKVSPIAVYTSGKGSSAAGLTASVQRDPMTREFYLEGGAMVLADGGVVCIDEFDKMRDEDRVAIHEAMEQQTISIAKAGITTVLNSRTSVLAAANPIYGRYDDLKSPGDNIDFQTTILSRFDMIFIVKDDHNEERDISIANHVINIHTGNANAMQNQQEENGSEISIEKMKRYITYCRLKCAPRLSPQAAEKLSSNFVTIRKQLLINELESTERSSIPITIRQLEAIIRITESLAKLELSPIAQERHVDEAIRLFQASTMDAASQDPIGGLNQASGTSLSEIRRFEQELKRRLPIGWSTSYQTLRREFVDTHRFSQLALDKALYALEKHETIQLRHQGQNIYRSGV

B1: Psf1, GINS subunit of the purified CMG (natural protein, yeast (strains based on W303))
chain: MYGDLGNKLVLEAKRTKQLYARSNQDVNLPMYHEDIIRNILKEVSNLRKNTEYLKEQQQLGMLDDKVAKCQYFVTLLCMERNKRCLLAYQRLRTDILDSMAWNNNGLDLMSSITFSQQDTNNLSHQEQEYLKEYCDLITDLKSGDLVDIDLSGSLVPPSDVFIDVRVLKDAGEIQTEYGVFNLIKDSQFFVRQSDVERLIQQGYLQKI
notes: Psf1, GINS subunit of yeast CMG; The Psf1 chain of m4; source: yeast overexpression strain yJCZ3, purified as part of CMG
B2: Dpb2, subunit of the CBP-tagged Pol epsilon complexes (deltacat and exo-) (natural protein, yeast (strains based on W303), UniProt P24482 1-689, looked up)
chain: MFGSGNVLPVKIQPPLLRPLAYRVLSRKYGLSIKSDGLSALAEFVGTNIGANWRQGPATIKFLEQFAAVWKQQERGLFIDQSGVKEVIQEMKEREKVEWSHEHPIQHEENILGRTDDDENNSDDEMPIAADSSLQNVSLSSPMRQPTERDEYKQPFKPESSKALDWRDYFKVINASQQQRFSYNPHKMQFIFVPNKKQNGLGGIAGFLPDIEDKVQMFLTRYYLTNDRVMRNENFQNSDMFNPLSSMVSLQNELSNTNRQQQSSSMSITPIKNLLGRDAQNFLLLGLLNKNFKGNWSLEDPSGSVEIDISQTIPTQGHYYVPGCMVLVEGIYYSVGNKFHVTSMTLPPGERREITLETIGNLDLLGIHGISNNNFIARLDKDLKIRLHLLEKELTDHKFVILGANLFLDDLKIMTALSKILQKLNDDPPTLLIWQGSFTSVPVFASMSSRNISSSTQFKNNFDALATLLSRFDNLTENTTMIFIPGPNDLWGSMVSLGASGTLPQDPIPSAFTKKINKVCKNVVWSSNPTRIAYLSQEIVIFRDDLSGRFKRHRLEFPFNESEDVYTENDNMMSKDTDIVPIDELVKEPDQLPQKVQETRKLVKTILDQGHLSPFLDSLRPISWDLDHTLTLCPIPSTMVLCDTTSAQFDLTYNGCKVINPGSFIHNRRARYMEYVPSSKKTIQEEIYI
notes: Dpb2, second largest subunit of yeast Pol epsilon; The complexes carry a CBP tag; The N-terminal domain is not seen in the deltacat map; also called NTD-Dpb2; CTD-Dpb2; source: yeast overexpression strain, galactose-induced; purified as part of Pol epsilon deltacat or exo- (calmodulin beads, Mono Q, gel filtration)

Assays:
Assay in all cases: cryo-EM structure; 250 nM CMG bound to a desthiobiotin-labelled pre-formed DNA fork on streptavidin beads with 2 mM ATPgammaS, then 80 nM Pol epsilon exo-, 30 °C, eluted with biotin; no crosslinker; 4.9 Å
Conditions in all cases: both partners purified
[1] = target: B2
[2] = target: T2, Mcm3, subunit of the purified CMG (yeast (strains based on W303), UniProt P24279 1-971)
T2 construct: Mcm3, subunit of yeast CMG; The Mcm3 chain of m4; source: yeast overexpression strain yJCZ3, purified as part of CMG

[3] = target: T1, Mcm5, subunit of the purified CMG

T2 sequence (P24279 whole entry): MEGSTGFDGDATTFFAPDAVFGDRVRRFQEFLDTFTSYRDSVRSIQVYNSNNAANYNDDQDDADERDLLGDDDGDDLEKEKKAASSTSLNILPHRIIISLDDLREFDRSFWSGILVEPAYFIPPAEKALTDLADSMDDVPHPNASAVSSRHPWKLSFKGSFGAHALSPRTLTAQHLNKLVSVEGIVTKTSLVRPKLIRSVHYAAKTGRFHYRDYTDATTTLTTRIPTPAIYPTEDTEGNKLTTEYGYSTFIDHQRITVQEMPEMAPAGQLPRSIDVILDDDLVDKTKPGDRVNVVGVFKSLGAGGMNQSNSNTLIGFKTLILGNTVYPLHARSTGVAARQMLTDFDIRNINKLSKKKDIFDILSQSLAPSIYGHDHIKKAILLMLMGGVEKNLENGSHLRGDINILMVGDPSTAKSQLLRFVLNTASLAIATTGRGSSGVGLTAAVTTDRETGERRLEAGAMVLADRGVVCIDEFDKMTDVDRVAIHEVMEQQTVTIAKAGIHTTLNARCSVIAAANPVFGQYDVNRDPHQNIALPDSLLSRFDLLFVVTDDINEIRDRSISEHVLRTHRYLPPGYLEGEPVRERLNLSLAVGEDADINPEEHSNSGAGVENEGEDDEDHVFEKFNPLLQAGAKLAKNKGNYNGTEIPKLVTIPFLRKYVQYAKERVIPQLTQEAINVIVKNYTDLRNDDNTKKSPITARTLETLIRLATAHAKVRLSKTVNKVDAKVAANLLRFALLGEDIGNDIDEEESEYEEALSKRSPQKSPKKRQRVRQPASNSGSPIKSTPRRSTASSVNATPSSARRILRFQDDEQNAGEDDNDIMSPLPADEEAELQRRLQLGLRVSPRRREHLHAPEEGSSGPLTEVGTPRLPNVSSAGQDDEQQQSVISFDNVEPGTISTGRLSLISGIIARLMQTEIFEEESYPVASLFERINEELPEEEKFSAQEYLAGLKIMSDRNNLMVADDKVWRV

Row | Binder | binding result [1] | binding result [2] | binding result [3]
1 | B1 | binds | – | –
2 | B2 | – | binds | binds
